Patent US5939284A, “Protein phosphatase 1 binding protein, R5” (Smithkline Beecham Corporation, priority 1996, dated 1999)

What was measured:
[1] = target: Human PP1g (catalytic subunit of protein phosphatase 1), bacterially expressed (human) (UniProt P36873)
[2] = target: PP1g (catalytic subunit of protein phosphatase 1); test: Protein phosphatase assay: phosphorylase phosphatase activity of PP1; format: biochemical, human; details: freshly prepared preparation; 32P-labelled phosphorylase as substrate; preincubated 15 minutes at 30° C.; FIG. 3; read-out: IC50 for inhibition of the phosphorylase phosphatase activity of PP1
Experimental: Protein phosphatase assays were performed in the absence of divalent cations as described in Cohen et al, (1988), cited above. The catalytic subunit PP1g, described above in Example 2, was diluted in assay buffer to 1.5 U/ml (1.4 nM). Rabbit skeletal muscle glycogen phosphorylase was ^32 P-labelled by phosphorylase kinase to a stoichiometry of 1 mol phosphate per mol subunit as in Cohen et al, Meth. Enzymol. 159:390-408 (1988) and was 10 mM in the assays.
Assays were initiated with 0.01 ml ^32 P-labelled phosphorylase. One unit of activity is the amount of enzyme which catalyses the release of 1 mmol of [^32 P]phosphate per minute.

[3] = system: phosphorylase a; test: Blot overlay with 32P labelled phosphorylase a; format: binding; details: proteins electrophoresed, transferred to nitrocellulose, probed with 32P labelled phosphorylase a; blot not shown

IC50, inhibition of phosphorylase phosphatase activity of PP1 [1]	IC50 [2]	Binding of phosphorylase a [3]	Molecule
100 nM			GST-GL fusion protein
100 nM			GST-PPP1R5 fusion protein
	~100 nM	bound	GST-GL: GST fusion protein of the rat liver glycogen binding subunit (GL) of protein phosphatase 1, bacterially expressed (protein) MAVDIEYSYSSMAPSLRRERFTFKISPKLNKPLRPCIQLGSKDEAGRMVAPTVQEKKVKKRVSFADNQGLALTMVKVFSEFDDPLDIPFNITELLDNIVSLTTAESESFVLDFPQPSADYLDFRNRLQTNHVCLENCVLKEKAIAGTVKVQNLAFEKVVKIRMTFDTWKSFTDFPCQYVKDTYAGSDRDTFSFDISLPEKIQSYERMEFAVCYECNGQSYWDSNKGKNYRITRAELRSTQGMTEPYNGPDFGISFDQFGSPRCSFGLFPEWPSYLGYEKLGPYY
